# Data: the supplement of paper PMC10567573
# B1: DVL3 (parent)
# chain: HPDPAPFCADNPSELPPPMERTGG
# B2: SAT2 (parent)
# chain: LTEAEGWHFFCFQGEATRKLAGK
# Variants of: B1
# Test: protein stability index of a GFP-peptide fusion (GPS, HEK-293T) (PSI 1-6); higher = more stable
# Details: c terminus: a fixed tail appended
# 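Also: lentivirally expressed fusions sorted by FACS into six bins by GFP to DsRed ratio, PSI derived from sequencing read proportions per bin multiplied by bin number.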
row,Variant,protein stability index
1,HPDPAPFCADNPSELPSPMERTGG,2.92
2,HPDPAPFCADNPSELPRPMERTGG,2.62
3,HPDPAPFCADNPSELPQPMERTGG,3.02
4,HPDPAPFCADNPSELPLPMERTGG,2.76
5,HPDPAPFCADNPSELPFPMERTGG,2.4
6,HPDPAPFCADNPSELPGPMERTGG,2.6
7,HPDPAPFCADNPSELPDPMERTGG,2.93
8,HPDPAPFCADNPSELPVPMERTGG,2.82
9,HPDPAPFCADNPSELPYPMERTGG,2.86
10,HPDPAPFCADNPSELPWPMERTGG,2.54
11,HPDPAPFCADNPSELPHPMERTGG,2.61
12,HPDPAPFCADNPSELPMPMERTGG,2.54
13,HPDPAPFCADNPSELPAPMERTGG,2.73
14,HPDPAPFCADNPSELPCPMERTGG,2.52
15,HPDPAPFCADNPSELPKPMERTGG,2.92
16,HPDPAPFCADNPSELPIPMERTGG,2.63
17,HPDPAPFCADNPSELPNPMERTGG,2.65
18,HPDPAPFCADNPSELPEPMERTGG,3.41
19,HPDPAPFCADNPSELPPPMGRTGG,1.73
20,HPDPAPFCADNPSELPPPMERTMG,2.62
21,HPDPAPFCADNPSELPPPMERTWG,2.07
22,HPDPAPFCADNPSELPPPMERTVG,2.47
23,HPDPAPFCADNPSELPPPMERTRG,2.89
24,HPDPAPFCADNQSELPPPMERTGG,2.86
25,HPDPAPFCADNLSELPPPMERTGG,3.24
26,HPDPAPFCADNMSELPPPMERTGG,3.54

row,Variant,protein stability index
1,HPDPAPFCADNVSELPPPMERTGG,2.3
2,HPDPAPFCADNNSELPPPMERTGG,2.42
3,HPDPAPFCADNWSELPPPMERTGG,2.17
4,HPDPAPFCADNKSELPPPMERTGG,2.88
5,HPDPAPFCADNESELPPPMERTGG,3.19
6,HPDPAPFCADNRSELPPPMERTGG,2.95
7,HPDPAPFCADLPSELPPPMERTGG,2.59
8,HPDPAPFRADNPSELPPPMERTGG,2.62
9,HPDPAPFVADNPSELPPPMERTGG,2.84
10,HPDPAPFWADNPSELPPPMERTGG,2.74
11,HPDPAPFGADNPSELPPPMERTGG,4.65
12,HPDPAPFEADNPSELPPPMERTGG,5.49
13,HPDPAPFCADNPSELIPPMERTGG,2.7
14,HPDPAPFCADNPSELDPPMERTGG,2.9
15,HPDPAPFCADNPSELGPPMERTGG,3.1
16,HPDPAPFCADNPSELSPPMERTGG,3.19
17,HPDPAPFCADNPSELQPPMERTGG,3.59
18,HPDPAPFCADNPSELKPPMERTGG,2.19
19,HPDPAPFCADNPSELLPPMERTGG,2.42
20,HPDPAPFCADNPSELCPPMERTGG,2.38
21,HPDPAPFCADNPSELMPPMERTGG,3.02
22,HPDPAPFCADNPSELHPPMERTGG,2.58
23,HPDPAPFCADNPSELAPPMERTGG,3.04
24,HPDPAPFCADNPSELRPPMERTGG,2.28
25,HPDPAPFCADNPSELVPPMERTGG,2.9
26,HPDPAPFCADNPSELEPPMERTGG,3.09

row,Variant,protein stability index
1,HPDPAPFCADNPSELWPPMERTGG,2.17
2,HPDPAPFCADNPSGLPPPMERTGG,2.65
3,HPDPAPFCADNPSELPPKMERTGG,2.53
4,HPDPAPFCADNPSELPPLMERTGG,2.95
5,HPDPAPFCADNPSELPPTMERTGG,3.12
6,HPDPAPFCADNPSELPPQMERTGG,3.42
7,HPDPAPFCADNPSELPPAMERTGG,2.48
8,HPDPAPFCADNPSELPPIMERTGG,2.82
9,HPDPAPFCADNPSELPPFMERTGG,2.7
10,HPDPAPFCADNPSELPPHMERTGG,2.69
11,HPDPAPFCADNPSELPPSMERTGG,3.05
12,HPDPAPFCADNPSELPPDMERTGG,3.27
13,HPDPAPFCADNPSELPPCMERTGG,2.94
14,HPDPAPFCADNPSELPPNMERTGG,3.2
15,HPDPAPFCADNPSELPPYMERTGG,2.61
16,HPDPAPFCADNPSELPPEMERTGG,3.32
17,HPDPAPFCADNPSELPPMMERTGG,2.68
18,HPDPAPFCADNPSELPPWMERTGG,2.35
19,HPDPAPFCADNPSELPPGMERTGG,2.79
20,HPDPAPFCADNPSELPPRMERTGG,2.8
21,HPDPAPFCADNPSELPPVMERTGG,3.15
22,HPDPAPFCGDNPSELPPPMERTGG,3.27
23,HPDPAPWCADNPSELPPPMERTGG,2.21
24,HPDPAPRCADNPSELPPPMERTGG,5.23
25,HPDPAHFCADNPSELPPPMERTGG,3.46
26,HPDPANFCADNPSELPPPMERTGG,4.83

row,Variant,protein stability index
1,HPDPALFCADNPSELPPPMERTGG,2.83
2,HPDPAWFCADNPSELPPPMERTGG,3.3
3,HPDPAYFCADNPSELPPPMERTGG,2.46
4,HPDPAQFCADNPSELPPPMERTGG,4.12
5,HPDPATFCADNPSELPPPMERTGG,3.92
6,HPDPASFCADNPSELPPPMERTGG,3.14
7,HPDPAMFCADNPSELPPPMERTGG,2.83
8,HPDPAIFCADNPSELPPPMERTGG,3
9,HPDPAVFCADNPSELPPPMERTGG,2.73
10,HPDPARFCADNPSELPPPMERTGG,2.91
11,HPDPAKFCADNPSELPPPMERTGG,3.33
12,HPDPAPFCADNPSELPPPMERTGS,3.1
13,HPDPAPFCADNPSELPPPMERLGG,2.94
14,HPDPAPFCADNPSELPPPMERQGG,2.78
15,HPDPAPFCADNPSELPPPMERAGG,3.02
16,HPDPAPFCADNPSELPPPMERGGG,2.5
17,HPDPAPFCADNPSELPPPMERMGG,2.96
18,HPDPAPFCADNPSELPPPMERKGG,2.85
19,HPDPAPFCADNPSELPPPMERWGG,2.22
20,HPDPAPFCADNPSELPPPMERVGG,2.02
21,HPDPAPFCADNPSELPPPMERRGG,2.58
22,HPDPAPFCADNPSELPPPMERDGG,3.31
23,HPDPAPFCADNPSELPPPMEREGG,2.88

# Variants of: B2
# Test: as above
# Details: c terminus: native
row,Variant,protein stability index
1,LTEAEGWHFFCFKGEATRKLAGK,2.63
2,LTEAEGWHFFCFNGEATRKLAGK,2.72
3,LTEAEGWHFFCFCGEATRKLAGK,1.48
4,LTEAAGWHFFCFQGEATRKLAGK,2.17
5,LTEATGWHFFCFQGEATRKLAGK,1.94
6,LTEAEGWHFFCFQGEATRKPAGK,3.22
7,LTEAEGWHFFCFQGEATRKFAGK,1.97
8,TTEAEGWHFFCFQGEATRKLAGK,2.33
9,ATEAEGWHFFCFQGEATRKLAGK,2.58
10,LTNAEGWHFFCFQGEATRKLAGK,1.48
11,LTPAEGWHFFCFQGEATRKLAGK,1.74
12,LTMAEGWHFFCFQGEATRKLAGK,2.56
13,LTHAEGWHFFCFQGEATRKLAGK,1.67
14,LTEAEGWAFFCFQGEATRKLAGK,2.21
15,LTEAEGWVFFCFQGEATRKLAGK,1.91
16,LTEAEGWIFFCFQGEATRKLAGK,2.19
17,LTEAEGWHAFCFQGEATRKLAGK,3.78
18,LTEAEGWHRFCFQGEATRKLAGK,3.77
19,LTEAEGWHHFCFQGEATRKLAGK,3.48
20,LTEAEGWHKFCFQGEATRKLAGK,4.13
21,LTEAEGWHLFCFQGEATRKLAGK,1.85
22,LTEAEGWHEFCFQGEATRKLAGK,4.43
23,LTEAEGWHFFCFQGEATRKLAGV,1.49

row,Variant,protein stability index
1,LTEAEGWHFFCFQGEATRKLAGR,1.51
2,LTEAEGWHFFCFQGEATRKLAGS,2
3,LTEAEMWHFFCFQGEATRKLAGK,2.05
4,LTEAECWHFFCFQGEATRKLAGK,1.5
5,LTEAEGWHFFCFQGEAERKLAGK,2.7
6,LTEAEGWHFFCFQGEAFRKLAGK,1.61
7,LTEAEGWHFFCFQGEARRKLAGK,2.26
8,LTEAEGWHFFCFQGEAPRKLAGK,3.05
9,LTEAEGWHFFMFQGEATRKLAGK,2.6
10,LTEAEGWHFFPFQGEATRKLAGK,3.7
11,LTEAEGWHFFRFQGEATRKLAGK,2.33
12,LTEAEGWHFFHFQGEATRKLAGK,2.99
13,LTEAEGWHFNCFQGEATRKLAGK,3.94
14,LTEAEGWHFSCFQGEATRKLAGK,4.25
15,LTEAEGWHFHCFQGEATRKLAGK,3.46
16,LTEAEGWHFCCFQGEATRKLAGK,2.56
17,LTEAEGWHFMCFQGEATRKLAGK,3.39
18,LTEAEGWHFVCFQGEATRKLAGK,2.34
19,LTEAEGWHFFCFQGEHTRKLAGK,2.63
20,LTEAEGWHFFCFQGERTRKLAGK,1.98
21,LTEAEGWHFFCFQGEVTRKLAGK,2.3
22,LTEAEGWHFFCFQGEFTRKLAGK,1.59
23,LTEAEGWHFFCFQGETTRKLAGK,1.68

row,Variant,protein stability index
1,LTEAEGWHFFCFQGEITRKLAGK,1.64
2,LTEAEGWHFFCFQEEATRKLAGK,2.83
3,LTEAEGWHFFCFQSEATRKLAGK,1.73
4,LTEAEGWHFFCFQLEATRKLAGK,1.73
5,LTEAEGWHFFCFQAEATRKLAGK,2.48
6,LTEAEGWHFFCFQDEATRKLAGK,3.17
7,LTEAEGWHFFCKQGEATRKLAGK,4.01
8,LTEAEGWHFFCCQGEATRKLAGK,3.39
9,LTEAEGWHFFCMQGEATRKLAGK,2.5
10,LTEAEGWHFFCGQGEATRKLAGK,3.42
11,LTEAEGWHFFCHQGEATRKLAGK,3.95
12,LTEAEGWHFFCFQGFATRKLAGK,1.57
13,LTEAEGWHFFCFQGEATQKLAGK,1.87
14,LTEAEGWHFFCFQGEATFKLAGK,1.5
15,LTEAEGWHFFCFQGEATIKLAGK,3.84
16,LTEAEGWHFFCFQGEATLKLAGK,1.53
17,LTEAEGWHFFCFQGEATCKLAGK,1.92
18,LTEAEGWHFFCFQGEATRKLATK,2.27
19,LTEAEGWHFFCFQGEATRKLAQK,3.22
20,LTEAEGWHFFCFQGEATRKLAKK,2.7
21,LTECEGWHFFCFQGEATRKLAGK,1.45
22,LTEGEGWHFFCFQGEATRKLAGK,2.68
23,LTESEGWHFFCFQGEATRKLAGK,2.66

row,Variant,protein stability index
1,LTENEGWHFFCFQGEATRKLAGK,2.87
2,LTEAEGWHFFCFQGEATRRLAGK,2.23
3,LTEAEGWHFFCFQGEATRILAGK,2.39
4,LTEAEGWHFFCFQGEATRQLAGK,1.69
5,LTEAEGWHFFCFQGEATRELAGK,2.68
6,LTEAEGWHFFCFQGEATRMLAGK,1.89
7,LYEAEGWHFFCFQGEATRKLAGK,1.56
8,LREAEGWHFFCFQGEATRKLAGK,2.14
9,LGEAEGWHFFCFQGEATRKLAGK,1.76
10,LTEAEGNHFFCFQGEATRKLAGK,4.35
11,LTEAEGHHFFCFQGEATRKLAGK,3.96
12,LTEAEGVHFFCFQGEATRKLAGK,3.42
13,LTEAEGKHFFCFQGEATRKLAGK,3.88
14,LTEAEGIHFFCFQGEATRKLAGK,2.63
15,LTEAEGEHFFCFQGEATRKLAGK,4.9
16,LTEAEGYHFFCFQGEATRKLAGK,2.58
17,LTEAEGWHFFCFQGEATRKLSGK,2.16
18,LTEAEGWHFFCFQGEATRKLLGK,1.33
19,LTEAEGWHFFCFQGEATRKLCGK,2.57
20,LTEAEGWHFFCFQGEATRKLYGK,2
21,LTEAEGWHFFCFQGEATRKLNGK,2.55
